Measured values published in US20050064507A1, “Determining kinase specificity” (priority 2003, published 2005).

Assays:
Format in all cases: biochemical
PKC-delta = target: T1, PKC-delta (Homo sapiens, UniProt Q05655); assay: In vitro kinase assay: peptide phosphorylation by PKC-delta;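 on PKC delta phosphorylation: peptide concentration 10 nM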
T1 construct: purchased Calbiochem
Outline: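 Biotin-Lys-dansyl-Lys-Pro-Pro-Gly-linked proteomic peptides (12–21-residue core) phosphorylated by PKC-delta in HEPES/Triton/CaCl2/MgCl2 buffer with phosphatidyl serine and PMA, 100 μM [γ-32P]ATP, 30° C., ~10 min, stoichiometry ≤5%; streptavidin-plate capture. Signal normalized as % of best peptide substrate.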

PKC-alpha = target: T2, PKC-alpha (Homo sapiens, UniProt P17252); assay: In vitro kinase assay: peptide phosphorylation by PKC-alpha
T2 construct: purchased Calbiochem
Procedure: (§1) Catalytically active preparations of the kinases of interest were either purchased or prepared. Purchased and tested active kinase preparations including the following: PKC-alpha, PKC-delta, PKC-epsilon, PKC-zeta, PKC-mu, PKA, PKG from Calbiochem, ROK alpha/ROCK-II, active from Upstate Biotechnology, and AKT1 from Panvera.
(§2) The conditions of the kinase assay and the amount of active kinase used varied with the kinase and with the accuracy needed. For a typical experiment, 5-20 ng of kinase was used per well and each peptide pool was assayed in duplicate wells. Note that the absolute amount of kinase used was not usually a critical parameter, because the desired information related to specificity of the kinase not its absolute activity, and robustness of the assay depends on comparisons of the same amount of kinase on different peptides. The combination of kinase concentration and assay duration was modified to assure that the stoichiometry of peptide phosphorylation never exceeded 5%. The choice of kinase buffer depended on the kinase being analyzed. For studies of PKC, 100 mM HEPES, 0.05% Triton-X100, 1 mM CaCl2, 20 mM MgCl2, 0.2 mg/ml phosphatidyl serine (Avanti Polar Lipids), PMA 100 ng/ml was typically used. The lipid stock was prepared by transferring 3 mg phosphatidyl serine into iced mixture of 450 μl water plus 50 μl of 10% Triton-X100, sonicating 10 times on ice for 1 sec each.
(§3) The kinase reaction mixture was assembled by sequential addition to a tube held on ice of: 5 μl peptide (100 μM for final concentration of 10 μM), 15 μl of kinase (typically 5 ng/well, in appropriate kinase buffer), 30 μl of ATP (1 uCi/well of ^32P-gamma ATP in a stock of 167 μM cold ATP in the kinase buffer; for final concentration for 100 μM ATP). The mixture was rapidly warmed to desired reaction temperature (30° C. for PKC) and incubated for the desired duration (usually 10 minutes). The kinase assay was terminated by transfer to 4° C. water batch, and rapid addition of an equal volume (50 μl) of stop solution [0.1M ATP+0.1M EDTA in water, pH 8].
(§4) The peptides were then captured from the reaction mixture by transfer to a Reacti-Bind Streptavidin High Binding Capacity Coated Plates (HBC) (Pierce Biotechnology) as follows. The HBC plates were pre-rinsed three times with PBS/Tween PBS/Tween20 0.05% (PBS/Tween). Part of all of the reaction mixture was then transferred wells of a HBC plate pre-filled with 90 μl of phosphate-buffered saline (PBS); typically each aliquots of each phosphorylation reaction were transferred to duplicate HBC plates to assure accuracy by additional replication
(§5) For kinase assays done at the standard peptide concentration of 10 μM, the peptide concentration in the reaction mixture becomes 5 μM after addition of the stop solution; consequently 10 μl of the reaction (50 pMoles of peptide) was transferred to the HBC plate. More generally, the amount of reaction mixture transferred was estimated to be about 50 pMoles of peptide. […] The HBC plates were incubated for 0.5 to 1.5 hr at room temperature for complete binding of biotinylated peptides to plate-bound streptavidin. The HBC plates were then washed extensively with PBS/Tween. Five washes were done routinely and additional wash steps were added if the wash solution removed from the plate had measurable radioactivity as detected using a Geiger counter. This step is essential to obtaining a good the signal to noise ratio because the fraction of radioactivity incorporated in the peptides was a tiny fraction of the total in the reaction mixture. The wells were air-dried. A volume of 40-50 μl of microScint-20 (Packard Instruments) was added to each well. The plates were covered with stick-on film sheet. Radioactive emissions were measured in a TopCount NXT Microplate Scintillation and Luminescence Counter (Packard Instruments). Typically samples were counted for 5 minutes (or more) to improve the signal to noise ratio when counts were low. […]

PKC-epsilon = target: T3, PKC-epsilon (Homo sapiens, UniProt Q02156); assay: In vitro kinase assay: peptide phosphorylation by PKC-epsilon; settings: for phosphorylation by PKC epsilon: peptide concentration 1 uM
T3 construct: purchased Calbiochem
T3 sequence (Q02156 1-737): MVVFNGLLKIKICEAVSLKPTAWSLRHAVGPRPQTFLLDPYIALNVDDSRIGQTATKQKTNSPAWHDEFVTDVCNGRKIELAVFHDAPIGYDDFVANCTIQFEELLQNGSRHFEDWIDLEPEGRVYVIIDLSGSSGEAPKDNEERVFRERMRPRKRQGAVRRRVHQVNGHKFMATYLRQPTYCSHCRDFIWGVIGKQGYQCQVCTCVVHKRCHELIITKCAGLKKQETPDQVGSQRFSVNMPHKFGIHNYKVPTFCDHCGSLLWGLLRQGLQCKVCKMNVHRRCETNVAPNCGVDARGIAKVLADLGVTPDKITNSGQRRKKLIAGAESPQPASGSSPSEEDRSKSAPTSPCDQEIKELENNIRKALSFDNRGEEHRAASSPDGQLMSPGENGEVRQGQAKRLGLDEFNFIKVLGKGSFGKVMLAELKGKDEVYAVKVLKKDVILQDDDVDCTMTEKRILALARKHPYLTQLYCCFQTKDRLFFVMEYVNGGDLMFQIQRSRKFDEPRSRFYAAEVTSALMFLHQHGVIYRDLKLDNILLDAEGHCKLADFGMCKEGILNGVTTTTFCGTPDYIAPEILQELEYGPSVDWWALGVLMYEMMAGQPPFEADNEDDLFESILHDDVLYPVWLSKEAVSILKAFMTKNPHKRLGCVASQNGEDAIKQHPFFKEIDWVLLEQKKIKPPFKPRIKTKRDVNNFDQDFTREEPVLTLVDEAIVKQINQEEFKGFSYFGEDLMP
Procedure: as §1, §2, §3, §4, §5

T1 sequence (Q05655 whole entry): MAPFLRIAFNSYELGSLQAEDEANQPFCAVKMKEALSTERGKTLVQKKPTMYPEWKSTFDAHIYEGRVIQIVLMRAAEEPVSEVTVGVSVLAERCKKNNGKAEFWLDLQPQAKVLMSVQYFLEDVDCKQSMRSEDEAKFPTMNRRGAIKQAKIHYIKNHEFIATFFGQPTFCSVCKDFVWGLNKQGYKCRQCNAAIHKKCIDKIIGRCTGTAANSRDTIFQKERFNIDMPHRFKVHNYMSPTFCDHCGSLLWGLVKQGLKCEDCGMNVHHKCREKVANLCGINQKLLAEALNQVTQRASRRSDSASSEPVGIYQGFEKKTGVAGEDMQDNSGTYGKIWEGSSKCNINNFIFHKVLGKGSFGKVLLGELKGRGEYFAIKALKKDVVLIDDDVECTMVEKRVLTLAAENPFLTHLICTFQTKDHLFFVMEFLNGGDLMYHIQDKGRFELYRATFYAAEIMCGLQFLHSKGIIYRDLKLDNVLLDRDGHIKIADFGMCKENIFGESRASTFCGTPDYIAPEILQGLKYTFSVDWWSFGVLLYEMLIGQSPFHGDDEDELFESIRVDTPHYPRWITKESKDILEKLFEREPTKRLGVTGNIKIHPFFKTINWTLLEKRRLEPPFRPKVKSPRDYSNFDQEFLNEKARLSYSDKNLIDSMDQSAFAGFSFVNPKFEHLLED

Substance | PKC delta phosphorylation (PKC-delta; normalized to best substrate) [%] | PKC alpha phosphorylation (PKC-alpha; normalized to best substrate) [%] | PKC-epsilon phosphorylation (PKC-epsilon; normalized to best substrate) [%] | phosphorylation by PKC-delta (PKC-delta; peptide concentration 1 uM) | phosphorylation by PKC-delta (PKC-delta; peptide concentration 10 uM) | phosphorylation by PKC alpha (PKC-alpha; peptide concentration 1 uM) | phosphorylation by PKC alpha (PKC-alpha; peptide concentration 10 uM) | phosphorylation by PKC epsilon (PKC-epsilon)
113 (GENVLKKSMKSRVKG) [compound 113] | 4 | 16 | 10 |  |  |  |  | 
114 (KKKKRASFKRKSSKKG) [compound 114] |  |  |  | 80 | 100 | 100 | 100 | 100
115 (NRKKKRTSFKRKA) [compound 115] |  |  |  | 94 | 99 | 55 | 56 | 91
116 (EEGTFRSSIRRLSTRRR) [compound 116] |  |  |  | 75 | 41 | 70 | 57 | 92
117 (NRKKKRTSFKRKA) [compound 117] |  |  |  | 100 | 79 | 40 | 39 | 67
118 (RPQNTLKASKKKKRASFKRK) [compound 118] |  |  |  | 73 | 60 | 46 | 60 | 89
119 (KKRFSFKKSFKLSGFSFKKN) [compound 119] |  |  |  | 42 | 16 | 94 | 98 | 81
120 (AKRRRLSSLRASTSK) [compound 120] |  |  |  | 64 | 32 | 55 | 58 | 56
121 (LRRRSLRRSNSISKSPGP) [compound 121] |  |  |  | 80 | 53 | 33 | 29 | 49
122 (RAITSTLASSFKRRR) [compound 122] |  |  |  | 55 | 24 | 43 | 44 | 72
123 (KKRFSFKKSFKLSGFSFKKN) [compound 123] |  |  |  | 45 | 22 | 58 | 73 | 67
124 (PRLIRRGSKKRPAR) [compound 124] |  |  |  | 69 | 43 | 48 | 24 | 49
125 (PLKEKKRERKTSSKSSVRKR) [compound 125] |  |  |  | 46 | 36 | 34 | 31 | 48
